The text below walks through data of publication PMC2367712 (Nucleic Acids Research, 2008).

This series deals with the molecule itself. Description: cross-linking.

B1: Lsr2 of M. tuberculosis, recombinant, His-tagged at the C-terminal (natural protein)
chain: not shown
B1: the “stoichiometry N” value was 2.
